Test results as given in patent US7115382B1, “Method for detecting IGFBP-4 protease without detecting IGFBP-4 protease/proMBP Complex” (Mayo Foundation for Medical Education and Research, priority 1999, dated 2006).

Columns and labels:
[1] = biological target: T1, IGFBP-4 protease activity in follicular fluid (Homo sapiens, UniProt Q13219); assay: IGFBP-4 proteolysis in IVF follicular fluid, cell-free [125I]IGFBP-4 assay; format: biochemical; details: for Effect on IGFBP-4 protease activity in IVF follicular fluid: added to the assay during 6 h incubation; for % Inhibition of IGFBP-4 proteolysis, FF: follicular fluid 10 μl, [125I]IGFBP-4, 6 h 37°C, EDTA 5 mM, 1,10 phenantholine 5 mM, PMSF 10 mM, Pefabloc 1 mM, TIMP-1 5 μg/ml
T1 construct: Follicular fluid was obtained at the time of follicle aspiration for in vitro fertilization (IVF) procedures; from tissue; host or cells: IVF follicular fluid
Description: PAPP-A Activity. […] For some experiments, PAPP-A polyclonal antibody or nonspecific rabbit IgG was added to the assay mixture or was used in conjunction with protein G plus protein A-agarose (Oncogene Science) to immunoprecipitate IGFBP-4 protease activity before assay.
(§1) For some experiments, protease inhibitors (see Table 2) or PAPP-A polyclonal antibody were added to the assay mixture during the 6 h incubation. In others, PAPP-A antibody or nonspecific rabbit IgG was used in conjunction with Protein G-plus/Protein-A-agarose (Oncogene Science) to immunoprecipitate IGFBP-4 protease activity and the sample supernatants were then used in the protease assay.

[2] = biological target: T2, rPAPP-A (Homo sapiens, UniProt Q13219); assay: Activity of recombinant PAPP-A against IGFBP-4; format: biochemical; details: in presence of IGF
T2 construct: because the mature rPAPP-A is antigenic, functional, and secreted abundantly into the culture medium; made in house; host or cells: human embryonic kidney 293T cells, pcDNA3.1-PAPP-A; culture supernatant or purified
Description: (§2) PAPP-A Activity. IGFBP-4 proteolysis was assayed by incubating the sample overnight at 37° C. with 2 mM CaC2/50 mM Tris (pH 7.5)/10,000 cpm of [^125I]IGFBP-4 in the absence and presence of 5 nM IGF-II in a total volume of 25 μl. Proteins were separated by reducing 15% SDS/PAGE and visualized by autoradiography. For some experiments, PAPP-A polyclonal antibody or nonspecific rabbit IgG was added to the assay mixture or was used in conjunction with protein G plus protein A-agarose (Oncogene Science) to immunoprecipitate IGFBP-4 protease activity before assay.
(§3) Measurement of PAPP-A Proteolytic Activity: IGFBP-4 proteolysis was assayed as described in Example 1. The activity of the PAPP-A/proMBP complex was compared to the activity of rPAPP-A in two parallel time course experiments scaled up to larger reaction volumes: Equal amounts of sample A (pool of pregnancy serum diluted to 7 μg/ml of PAPP-A/proMBP as determined by ELISA calibrated with purified PAPP-A/proMBP) and sample B (as sample A, but rPAPP-A supernatant added to 7 μg/ml as determined by ELISA calibrated with purified rPAPP-A) were incubated with [^125I]IGFBP-4 in the presence of 5 nM IGF-II. […] The experiment with sample A was also carried out in the presence of polyclonal anti(PAPP-A/proMBP). A similar time course experiment was performed for comparison of PAPP-A activity in selected column fractions.

[3] = biological target: T3, PAPP-A (Homo sapiens, UniProt Q13219); assay: IGFBP-4 proteolysis by PAPP-A purified from pregnancy serum, [125I]IGFBP-4 assay; format: biochemical; details: PAPP-A purified from pregnancy serum 500 ng, EDTA 5 mM, 1,10 phenantholine 5 mM, PMSF 10 mM, TIMP-1 5 μg/ml
T3 construct: a pro-part of 58 residues, and an 1547-residue circulating mature polypeptide; from tissue; host or cells: human term pregnancy serum
Description: as §2
IGFBP-4 proteolysis was assayed as described in Example 1, by incubating sample at 37° C. for 6 h with [^125I]IGFBP-4. Reaction products were separated by nonreducing 7.5–15% gradient SDS-PAGE, and visualized by autoradiography.
as §1

[4] = biological target: insulin-like growth factor binding protein-4 ([125I]IGFBP-4) (human) (UniProt P22692); assay: cell-based or functional assay
[5] = system: IGFBP-4; assay: IGFBP-4 cleavage by PAPP-A forms (rPAPP-A, PAPP-A/proMBP, column fractions); format: biochemical, human; details: for Amount required to obtain the same degree of IGFBP-4 cleavage: initial experiment, purified proteins; for IGF-dependent IGFBP-4 protease activity: with and without IGF-II
Description: as §2, §3

[6] = biological target: PAPP-A (IGFBP-4 protease) in IVF follicular fluid (human) (UniProt Q13219); assay: cell-based or functional assay
[7] = biological target: PAPP-A/proMBP complex purified from pregnancy serum (human) (UniProt Q13219); assay: cell-based or functional assay
[8] = biological target: T4, insulin-like growth factor binding protein-4 ([125I]IGFBP-4) (UniProt P22692)
T4 sequence: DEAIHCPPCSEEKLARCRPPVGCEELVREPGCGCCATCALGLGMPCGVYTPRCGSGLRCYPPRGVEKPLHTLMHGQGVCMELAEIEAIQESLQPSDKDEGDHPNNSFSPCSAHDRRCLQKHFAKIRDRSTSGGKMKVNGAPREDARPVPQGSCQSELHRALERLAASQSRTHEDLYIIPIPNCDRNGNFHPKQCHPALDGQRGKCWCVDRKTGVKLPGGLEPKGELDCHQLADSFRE

[9] = biological target: T5, insulin-like growth factor binding protein-4 ([125I]IGFBP-4), P22692
T5 chain: T4 sequence

[10] = biological target: PAPP-A present in pregnancy serum (human, UniProt Q13219 82-1627); assay: cell-based or functional assay
[11] = system: human granulosa cells; details: Iwashita et al. 1996; cited from earlier work

T2 sequence (Q13219 with tags, fused parts or gaps): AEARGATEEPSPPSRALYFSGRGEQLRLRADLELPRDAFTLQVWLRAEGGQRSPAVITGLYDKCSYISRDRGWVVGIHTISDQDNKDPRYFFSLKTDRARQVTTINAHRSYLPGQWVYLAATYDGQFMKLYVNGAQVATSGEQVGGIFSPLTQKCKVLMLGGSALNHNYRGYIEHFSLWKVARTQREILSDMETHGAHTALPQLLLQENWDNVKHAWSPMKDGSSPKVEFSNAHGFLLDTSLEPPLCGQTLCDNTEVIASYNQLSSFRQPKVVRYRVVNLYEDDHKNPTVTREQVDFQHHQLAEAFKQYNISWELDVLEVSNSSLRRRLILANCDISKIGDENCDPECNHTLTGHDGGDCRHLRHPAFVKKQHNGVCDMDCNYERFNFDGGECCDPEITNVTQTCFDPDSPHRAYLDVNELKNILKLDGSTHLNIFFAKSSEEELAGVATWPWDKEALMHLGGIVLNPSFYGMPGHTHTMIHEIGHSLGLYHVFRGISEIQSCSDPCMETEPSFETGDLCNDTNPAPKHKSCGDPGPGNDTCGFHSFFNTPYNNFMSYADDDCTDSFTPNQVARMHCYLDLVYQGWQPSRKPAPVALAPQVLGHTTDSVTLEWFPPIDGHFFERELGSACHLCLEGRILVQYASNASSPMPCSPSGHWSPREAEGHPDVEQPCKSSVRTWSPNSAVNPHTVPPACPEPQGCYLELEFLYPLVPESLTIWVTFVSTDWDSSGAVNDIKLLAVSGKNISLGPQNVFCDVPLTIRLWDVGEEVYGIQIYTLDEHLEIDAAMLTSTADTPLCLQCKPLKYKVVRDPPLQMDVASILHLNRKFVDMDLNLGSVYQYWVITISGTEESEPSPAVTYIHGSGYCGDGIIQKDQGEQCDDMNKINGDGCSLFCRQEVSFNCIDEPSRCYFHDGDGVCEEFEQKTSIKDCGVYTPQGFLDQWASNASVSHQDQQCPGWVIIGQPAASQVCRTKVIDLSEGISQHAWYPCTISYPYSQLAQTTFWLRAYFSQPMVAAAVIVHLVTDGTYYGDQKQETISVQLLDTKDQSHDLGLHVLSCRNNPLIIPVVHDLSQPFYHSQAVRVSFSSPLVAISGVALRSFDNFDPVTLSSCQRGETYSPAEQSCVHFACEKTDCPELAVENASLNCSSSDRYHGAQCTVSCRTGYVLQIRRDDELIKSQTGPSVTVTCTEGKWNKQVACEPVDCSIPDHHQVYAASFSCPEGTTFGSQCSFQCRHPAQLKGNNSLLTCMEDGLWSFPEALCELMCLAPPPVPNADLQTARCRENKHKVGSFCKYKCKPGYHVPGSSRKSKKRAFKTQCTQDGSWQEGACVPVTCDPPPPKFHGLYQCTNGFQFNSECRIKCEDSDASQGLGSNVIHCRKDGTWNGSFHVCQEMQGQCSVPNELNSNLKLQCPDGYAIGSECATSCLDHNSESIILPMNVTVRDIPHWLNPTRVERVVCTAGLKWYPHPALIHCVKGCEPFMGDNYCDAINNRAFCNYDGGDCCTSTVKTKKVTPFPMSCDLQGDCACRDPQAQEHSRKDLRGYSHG

c1cnc2c(c1)ccc1cccnc12 [1,10 phenantholine, 1,10-phenanthroline]
Effect on IGFBP-4 protease activity in IVF follicular fluid [1]: completely suppressed
% Inhibition of IGFBP-4 proteolysis, FF [1]: 100%
Inhibition of rPAPP-A activity against IGFBP-4 [2]: inhibited
% Inhibition of IGFBP-4 proteolysis, PAPP-A [3]: 100%

O=C(O)CN(CCN(CC(=O)O)CC(=O)O)CC(=O)O [EDTA]
Effect on IGFBP-4 protease activity in IVF follicular fluid [1]: completely suppressed
Inhibition of rPAPP-A activity against IGFBP-4 [2]: inhibited

O=S(=O)(F)Cc1ccccc1 [PMSF]
Effect on IGFBP-4 protease activity in IVF follicular fluid [1]: not
% Inhibition of IGFBP-4 proteolysis, FF [1]: 0%
% Inhibition of IGFBP-4 proteolysis, PAPP-A [3]: 20%

Cl.NCCc1ccc(S(=O)(=O)F)cc1 [Pefabloc]
Effect on IGFBP-4 protease activity in IVF follicular fluid [1]: not
% Inhibition of IGFBP-4 proteolysis, FF [1]: 15%

PAPP-A/proMBP complex purified from pregnancy serum (from UniProt Q13219 82-1627; P13727 17-222)
amount required for the same degree of IGFBP-4 cleavage [4]: 50 ng

PAPP-A/proMBP: approximately 500 kDa disulfide-linked 2:2 complex of PAPP-A and proMBP purified from pregnancy serum
Amount required to obtain the same degree of IGFBP-4 cleavage [5]: approximately 50 ng
IGF-dependent IGFBP-4 protease activity [5]: exhibited IGF-dependent IGFBP-4 protease activity

TIMP-1 (from UniProt P01033 24-207)
% Inhibition of IGFBP-4 proteolysis (TIMP-1, 5 ug/ml) [6]: 0%
% Inhibition of IGFBP-4 proteolysis (TIMP-1, 5 ug/ml) [7]: 0%

TIMP-1: a broad spectrum inhibitor of matrix metalloproteinases
Effect on IGFBP-4 protease activity in IVF follicular fluid [1]: had no effect
% Inhibition of IGFBP-4 proteolysis, FF [1]: 0%
Inhibition of rPAPP-A activity against IGFBP-4 [2]: not
% Inhibition of IGFBP-4 proteolysis, PAPP-A [3]: 0%

rPAPP-A: recombinant PAPP-A expressed in mammalian cells, secreted as a homodimer of about 400 kDa devoid of proMBP
Amount required to obtain the same degree of IGFBP-4 cleavage [5]: 0.1 ng
Difference in specific activity, rPAPP-A versus PAPP-A in pregnancy serum ([5]; time course, 7 μg/ml each, 5 nM IGF-II): about 100 fold
IGF-dependent IGFBP-4 protease activity [5]: cleaves IGFBP-4 in an IGF dependent manner

recombinant PAPP-A (rPAPP-A)
amount required for the same degree of IGFBP-4 cleavage [8]: approximately 50 ng of PAPP-A/proMBP complex purified from pregnancy serum was required to obtain the same degree of IGFBP-4 cleavage as 0.1 ng of rPAPP-A
cleavage of IGFBP-4 [8]: IGFBP-4 was cleaved in the presence, but not in the absence of IGF

uncomplexed PAPP-A: PAPP-A antigen eluting around fraction 24 of pregnancy serum, uncomplexed PAPP-A dimer
Specific activity against IGFBP-4, early versus late eluting Mono Q peak of pregnancy serum ([5]; fraction 24 versus fraction 43): greater than 25 fold

B1: PAPP-A (IGFBP-4 protease) in IVF follicular fluid (protein)
chain: EARGATEEPSPPSRALYFSGRGEQLRLRADLELPRDAFTLQVWLRAEGGQRSPAVITGLYDKCSYISRDRGWVVGIHTISDQDNKDPRYFFSLKTDRARQVTTINAHRSYLPGQWVYLAATYDGQFMKLYVNGAQVATSGEQVGGIFSPLTQKCKVLMLGGSALNHNYRGYIEHFSLWKVARTQREILSDMETHGAHTALPQLLLQENWDNVKHAWSPMKDGSSPKVEFSNAHGFLLDTSLEPPLCGQTLCDNTEVIASYNQLSSFRQPKVVRYRVVNLYEDDHKNPTVTREQVDFQHHQLAEAFKQYNISWELDVLEVSNSSLRRRLILANCDISKIGDENCDPECNHTLTGHDGGDCRHLRHPAFVKKQHNGVCDMDCNYERFNFDGGECCDPEITNVTQTCFDPDSPHRAYLDVNELKNILKLDGSTHLNIFFAKSSEEELAGVATWPWDKEALMHLGGIVLNPSFYGMPGHTHTMIHEIGHSLGLYHVFRGISEIQSCSDPCMETEPSFETGDLCNDTNPAPKHKSCGDPGPGNDTCGFHSFFNTPYNNFMSYADDDCTDSFTPNQVARMHCYLDLVYQGWQPSRKPAPVALAPQVLGHTTDSVTLEWFPPIDGHFFERELGSACHLCLEGRILVQYASNASSPMPCSPSGHWSPREAEGHPDVEQPCKSSVRTWSPNSAVNPHTVPPACPEPQGCYLELEFLYPLVPESLTIWVTFVSTDWDSSGAVNDIKLLAVSGKNISLGPQNVFCDVPLTIRLWDVGEEVYGIQIYTLDEHLEIDAAMLTSTADTPLCLQCKPLKYKVVRDPPLQMDVASILHLNRKFVDMDLNLGSVYQYWVITISGTEESEPSPAVTYIHGSGYCGDGIIQKDQGEQCDDMNKINGDGCSLFCRQEVSFNCIDEPSRCYFHDGDGVCEEFEQKTSIKDCGVYTPQGFLDQWASNASVSHQDQQCPGWVIIGQPAASQVCRTKVIDLSEGISQHAWYPCTISYPYSQLAQTTFWLRAYFSQPMVAAAVIVHLVTDGTYYGDQKQETISVQLLDTKDQSHDLGLHVLSCRNNPLIIPVVHDLSQPFYHSQAVRVSFSSPLVAISGVALRSFDNFDPVTLSSCQRGETYSPAEQSCVHFACEKTDCPELAVENASLNCSSSDRYHGAQCTVSCRTGYVLQIRRDDELIKSQTGPSVTVTCTEGKWNKQVACEPVDCSIPDHHQVYAASFSCPEGTTFGSQCSFQCRHPAQLKGNNSLLTCMEDGLWSFPEALCELMCLAPPPVPNADLQTARCRENKHKVGSFCKYKCKPGYHVPGSSRKSKKRAFKTQCTQDGSWQEGACVPVTCDPPPPKFHGLYQCTNGFQFNSECRIKCEDSDASQGLGSNVIHCRKDGTWNGSFHVCQEMQGQCSVPNELNSNLKLQCPDGYAIGSECATSCLDHNSESIILPMNVTVRDIPHWLNPTRVERVVCTAGLKWYPHPALIHCVKGCEPFMGDNYCDAINNRAFCNYDGGDCCTSTVKTKKVTPFPMSCDLQGDCACRDPQAQEHSRKDLRGYSHG
proteolysis of [125I]IGFBP-4 [9]: Incubation of IVF follicular fluid with [125I]IGFBP-4 resulted in the loss of intact IGFBP-4 ... and the generation of radiolabeled fragments of 18- and 14-kDa

B2: proform of eosinophil major basic protein (proMBP) (other, human, UniProt P13727 17-222, looked up)
chain: LHLRSETSTFETPLGAKTLPEDEETPEQEMEETPCRELEEEEEWGSGSEDASKKDGAVESISVPDMVDKNLTCPEEEDTVKVVGIPGCQTCRYLLVRSLQTFSQAWFTCRRCYRGNLVSIHNFNINYRIQCSVSALNQGQVWIGGRITGSGRCRRFQWVDGSRWNFAYWAAHQPWSRGGHCVALCTRGGHWRRAHCLRRLPFICSY
difference in specific activity between PAPP-A in pregnancy serum and rPAPP-A [10]: ~100 fold
specific activity against IGFBP-4 of the early (uncomplexed) against the late (PAPP-A/proMBP) Mono Q peak [10]: > 25 fold

B3: intact IGFBP4: intact insulin-like growth factor binding protein 4 (protein)
chain: T4 sequence
Effect on IGF-stimulated estradiol production [11]: inhibited
